Source: the nanobody polyreactivity screen of Harvey et al. (2022)

Assay: yeast display, Sf9 membrane polyspecificity reagent, FACS + sequencing; frameworks hold sequencing errors
Outline: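 Nanobodies from a synthetic yeast display library (Saccharomyces cerevisiae BJ5465), induced 36–48 hours with galactose, were stained 1 hour at 4 °C with 10% biotinylated, detergent-solubilized Sf9 membrane reagent, enriched on streptavidin microbeads, then FACS-sorted. Anti-HA (expression) and streptavidin (reagent binding) fluorescence set low and high (top ~1%) gates. Polyreactivity labels come from the gate of origin. Genes were colony-PCR amplified, MiSeq 2 × 250 sequenced and filtered by CDR length.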

Row | Sequence | polyreactivity (PSR sort gate)
1 | QVQLVESGGGLVQAGGSLRLSCAASGRIFSYYAMGWYRPAPGKERELVAAISSSGGSTYYADSVKGRFTISRDNAKNTVYLQMNSLKPEDTAVYYCRVYTRGEYYSWGQGTQVTVSS | high polyreactivity
2 | QVQLVESGGGLVQAGGSLRLSCAASGRIFSYYAMGWYRQAPGKERELVAAIRWSGGRTYYADSVKGRFTISRDNAKNTVYLQMNSLKPEDTAVYYCAAEGAYRLAYDYWGQGTQVTVSS | high polyreactivity
3 | QVQLVESGGGLVQAGGSLRLSCAASGRIFSYYAMGWYRQAPGKERELVATIDRSGDPTSYADSVKGRFTISRDNAMNTVYLKMNSLKPEDTAVYYCAATSKRARYDSWGQGTQVTVSS | high polyreactivity
4 | QVQLVESGGGLVQAGGSLRLSCAASGRIFSYYAMGWYRQAPGKEREMVAAISGNGGSTYYADSVKGRFTISRDNAKNTVYLQMNSLKPEDTAVYYCAADWWSSDWAYLYPYSYDYWGQGTQVTVSS | low polyreactivity
5 | QVQLVESGGGLVQAGGSLRLSCAASGRIFSYYAMGWYRQAPWKERELVAAISSSGGSTYYADSVKGRFTISRDNAKNTVYLQMNSLKPEDTEVYYCAKLLYGFGRYGYWGQGTQVTVSS | high polyreactivity
6 | QVQLVESGGGLVQAGGSLRLSCAASGRIFSYYDMGWYRQAPGKERELVATIRWSTSSTYADSVKGRFTISRDNAKPTVYLQMNILKPEDTAVYYCNAQYSQVNGYDYWGQGTQVTVSS | low polyreactivity
7 | QVQLVESGGGLVQAGGSLRLSCAASGRIFSYYTLGWYRQAPGKERELVAAIRISSGGTYYADSVKGRFTISRDNAKNTVYLQMNSLKPEDTAVYYCAARYYGFPSKYDYWGQGTQVTVSS | high polyreactivity
8 | QVQLVESGGGLVQAGGSLRLSCAASGRIFSYYVMGWNRQAPGKERELVAAITSGGSTNYADSEKGRFTISRDNAKNTVYLQMNSLKPEDTAVYYCNRAYTYINRLYGYWGQGTQVTVSS | high polyreactivity
9 | QVQLVESGGGLVQAGGSLRLSCAASGRIFTANAMGWYRQAPGKERELVAAISWRGGSTYYADSVKGRFTISRDNAKNSVYLQLNSLKPEDTAVYYCAAQRYAPYRYEYWGQGTHVTVSS | high polyreactivity
10 | QVQLVESGGGLVQAGGSLRLSCAASGRIFTAYAMGWYRQAPGKERELVASITTSGTTYYADSVKGRFTISRDNSKNTVYLQMNSLKPEDTAVYYCAADYYGYVQGGIQYGYYYLGQGTQVTVSS | low polyreactivity
11 | QVQLVESGGGLVQAGGSLRLSCAASGRIFTAYHMGWYRQAPGKESELVAAITRSSGSTYYADSVKGRFTISRDNAKNTVYLQMIRLKPEVTAVYYCATDGEFWGYDSWGQGTQVTVSS | low polyreactivity
12 | QVQLVESGGGLVQAGGSLRLSCAASGRIFTDYTMGWYRHAPGKERELDAAISKGGSGTYYADSVKGRFTISRDNAKNTVYLQMNSLKPEDTAVYYCNKVISTGEYDYWGQGTQVTVSS | low polyreactivity
13 | QVQLVESGGGLVQAGGSLRLSCAASGRIFTFYAMGWYRQAPGKARELVASITGGGNTYYADSVKGRFTISRDNAKNTVYLQMNSLKPEDTAVYYCAAGFSYFTSVLSLDRYYYWGQGTQVTVSS | low polyreactivity
14 | QVQLVESGGGLVQAGGSLRLSCAASGRIFTFYAMGWYRQAPGKERELVAAISSGGSTYYADSVKGRFTISRDNAKNTVFLQMNILKPEDTAVYYCAAVPVWYADYDYWGQGTQVTVSS | low polyreactivity
15 | QVQLVESGGGLVQAGGSLRLSCAASGRIFTFYARGLDRQAPGKEREMVAAISSGGSTYYADSVKGRFTISRDNAKNTVYLQMNSLKPEDTAVYYCATQGARYYHTYGYWGQGTLVTVSS | low polyreactivity
16 | QVQLVESGGGLVQAGGSLRLSCAASGRIFTGNAMGWYRQAPGKERELVAAITGRGGNTYYADSGKGRFTISRDNAKNTVYLLMNSLKPEDTAGYYGAKVFFHTPIVPEYDYWGQGTHVTVSS | low polyreactivity
17 | QVQLVESGGGLVQAGGSLRLSCAASGRIFTGNAMGWYRQAPGKERELVASITYSDGSTYYADSVKGRFTISRDNAKNTVYFQMNSLKPEDTAVYYCAADILWGQGTQVTVSS | low polyreactivity
18 | QVQLVESGGGLVQAGGSLRLSCAASGRIFTGNVMGLYRQAPGKERELVAAITYRGGSTYYADSVKGRFTISRDNAKNTVYLQMNSLKPEDTAVYYCNTGWDPYGYDYWGQGTQVTVSS | low polyreactivity
19 | QVQLVESGGGLVQAGGSLRLSCAASGRIFTGNVMGWYRQAPGKERELVAAISVSGGRTYYADSVKGRFTISRDNAKNNVYLQMNSLKPEDTAVYYCNARFSRVWYGGDYWGQGTQVTVSS | high polyreactivity
20 | QVQLVESGGGLVQAGGSLRLSCAASGRIFTGYAMGWYRQAPGKERELVATIRSRGGGTYYADSVKGRFTISRDNAKNTVYLQMNSLKPEDTAVYYCAADDYYYYFGTRYGYWRQGTQVTVSS | low polyreactivity
21 | QVQLVESGGGLVQAGGSLRLSCAASGRIFTHNVMGWYRQAPGTERELVAAISGGGGSTYYADSVKGRFTLSRDNAKNNVYKQMNSLKPEDTAVYYCAKDNHYEADRYDYWGQGTQVTVSS | low polyreactivity
22 | QVQLVESGGGLVQAGGSLRLSCAASGRIFTINAMGWYRQAPGKERELVASIRSTGGSTYYADSVKGRFTISRDNAKNTVYLQMNSLKPEDTAVYYCAADGGVAWGYGYWGQGTQVTVSS | low polyreactivity

Row | Sequence | polyreactivity (PSR sort gate)
23 | QVQLVESGGGLVQAGGSLRLSCAASGRIFTIYAMGWYRQAPGKERELVAAISDRGTRTYYADSVKGRFTISRDNAKNTVYLQMNSLKPEDTAVYYCATDALYTYGYYYWGQGTQVTVSS | low polyreactivity
24 | QVQLVESGGGLVQAGGSLRLSCAASGRIFTIYAMGWYRQAPGKERELVAAITRGGNTNYADSVKGRFTISRDNAKNTVYLQMNSLKPEDTAVYDGAVGSRSWPYDYWGQGSQVTVSS | high polyreactivity
25 | QVQLVESGGGLVQAGGSLRLSCAASGRIFTIYAMGWYRQAPGKERELVATISRRGGSTYYADSVKGRFTISRDNAKNTVYFQMNSLKPEETAVYYCAADSVITWWAYDYWGQGTQVTVSS | high polyreactivity
26 | QVQLVESGGGLVQAGGSLRLSCAASGRIFTIYSMGWYRQAPGKERELVATISKSGGITYYADSVKGRFTISRDNAKNTVYLQMNSLKPEDTAVYYCAAAWYYSSRGFHATWGHDYWGQGTQVTVSS | low polyreactivity
27 | QVQLVESGGGLVQAGGSLRLSCAASGRIFTIYTMGWYRQAPGKERELVAAISVNGGRTYYADSVKGRFTISRDNAKNTVYLQMNSLKPEDTAVYYCAARRRFGYHQQRYDYWGQGTQVTVSS | high polyreactivity
28 | QVQLVESGGGLVQAGGSLRLSCAASGRIFTLYTMGWYRQAPGKERELVARITRSGGTTYYADSVKGRFTISRDNSKNTVYLQMNSLKPEDTAVYYCNVDDYFWPGAKFDYWGQGTQVTVSS | low polyreactivity
29 | QVQLVESGGGLVQAGGSLRLSCAASGRIFTPNAMGWCRQAPGKERELVAAITWSGDNTYADSVKGRFTISRDNAKNTVYLQMNSLKPEDTAVYYCAAAYGYGHKKYGYWGQGTQVTVSS | low polyreactivity
30 | QVQLVESGGGLVQAGGSLRLSCAASGRIFTPYAMGWYRQAPRKERELVAVIRDGSTYYADSVKGRFTISRDNAKYNVYLQMKSLIPEDTAVYYCRYDIWVWWSGAYDYWGQGTQVTVSS | low polyreactivity
31 | QVQLVESGGGLVQAGGSLRLSCAASGRIFTPYAMGWYRQAPVKERELVAVIRDGSTYYADSVKGRFTISRDNAKNTVDLLMNSLKPEDTAVYYCRYDIWVWWSGAYDYWGQGTQVTVSS | low polyreactivity
32 | QVQLVESGGGLVQAGGSLRLSCAASGRIFTQYTMGWYRQAPGKERELVAAISRGGGSTYYADSVKGRFTISRDNAKNTVYLQMNSLKPEDTAVYYCAAIRREVVAGDYWGQGTQVTVSS | high polyreactivity
33 | QVQLVESGGGLVQAGGSLRLSCAASGRIFTRNAMGWYRPAPGKERELVAAISSRGGSTYYADSVKGRFTISRDNAKNTVYLQMNSLKPEDTAVYYCAAGYWATYDYWGQGTQVTVSS | high polyreactivity
34 | QVQLVESGGGLVQAGGSLRLSCAASGRIFTRNAMGWYRQAPGKERELVAAISNGGRTNYADSVKGRFTISRDNAKYTVYLQMNSLKPEDTAVYYCNARYLPRSTIYDYWGQVTQVTVSS | high polyreactivity
35 | QVQLVESGGGLVQAGGSLRLSCAASGRIFTRNAMGWYRQAPGKERELVAAISRSGGSTYYADSVKGRFTISRDNAKNTVYLQMNSLKPEDTAVYYCAKRGYDNYPFYYWGQGTQVTVSS | high polyreactivity
36 | QVQLVESGGGLVQAGGSLRLSCAASGRIFTRNTMGWYRQAPGKERELVAAITSRGGSTYYADSVKGRFTISRDNAKNTVYLQMNSLKPEDTAVYYCAADKPRSYYYWGQGTQVTVSS | high polyreactivity
37 | QVQLVESGGGLVQAGGSLRLSCAASGRIFTRYALGWYRHADGKVRELVATISRGGNTNYADSVKGRFTISRDNANNTVYLQMTSLKPEDTAVYYCAKYPVSRVGGYGYWGQGTQVTVSS | low polyreactivity
38 | QVQLVESGGGLVQAGGSLRLSCAASGRIFTRYAMGWYRQAPGKERELVATITKSGGSTYYADSVKGRFTISRDNAKNTVYLQMNSLKPEDTAVYYFAADSWWTYQYDYWGQGTQVTVSS | low polyreactivity
39 | QVQLVESGGGLVQAGGSLRLSCAASGRIFTRYTMGWYRQAPGKESELVAAISRSGGSTYYADSVKGRFTISRDNEKNTVYLQMNSLKPEDTAVYYCAAKGPYTYGYGYWGQGTQVTVSS | high polyreactivity
40 | QVQLVESGGGLVQAGGSLRLSCAASGRIFTSNAMGWYRQAPGKEREFVAAITKRGGRTYYADSVKGRFTISRDNAKNTVYLQMNSLLPEDTAVYYCAAGATGTSYYGGDYWGQGTQVTVSS | high polyreactivity
41 | QVQLVESGGGLVQAGGSLRLSCAASGRIFTSNAMGWYSQAPGKERELVAAITKSGGSTYYADSVKGRFTISRDNAKNTVYLQMNSLKPEVTAVYYCSAYPTSRYKYEYWGQGNQVTVSS | high polyreactivity
42 | QVQLVESGGGLVQAGGSLRLSCAASGRIFTSNTMGWNRQAPGKERELGAAITSSGGYMYYADSVKGRFTISRDNAKNTGYLQMNSLKPEDTAVYYCAADTIGYHYWYDYWGQGTQVTVSS | low polyreactivity
43 | QVQLVESGGGLVQAGGSLRLSCAASGRIFTSYAMGWYRQAPGKERELVAAISSGGSTYYADSVKGRFTISRDNAKNTVYLQMNSLKPEDTAVYYCNAQSTRRYYYYWGQGTQVTVSS | high polyreactivity
